Measurements taken from PMC8113879, “Molecular properties of human guanylate cyclase–activating protein 2 (GCAP2) and its retinal dystrophy–associated variant G157R” (The Journal of Biological Chemistry, 2021).

Key:
GCAP2 (Bos taurus) = GCAP2 (Bos taurus) (UniProt P51177); test: sedimentation equilibrium; conditions: cited from earlier work
[1] = molecular target: the molecule itself; test: MALDI-TOF MS; 1.0 mg/ml protein in 20 mM Tris HCl pH 7.5, 150 mM KCl, 1 mM DTT, desalted by ZipTip C4, sinapinic acid matrix; dimer peaks beside the monomer peak
[2] = molecular target: the molecule itself; test: SEC; analytical SEC, Superose 12 10/300GL, 20 mM Tris HCl pH 7.5, 150 mM KCl, 1 mM DTT, 1 mM Mg2+ + 500 uM Ca2+, 25 C; ~40 uM protein or 5-80 uM for the titration; apparent KD from a hyperbolic fit of apparent mass against concentration; monomer to dimer
[3] = molecular target: the molecule itself; test: SEC; analytical SEC, Superose 12 10/300GL, 20 mM Tris HCl pH 7.5, 150 mM KCl, 1 mM DTT, 500 uM EGTA + 1 mM Mg2+ (no Ca2+), 25 C; ~40 uM protein or 5-80 uM for the titration; apparent KD from a hyperbolic fit of apparent mass against concentration; monomer to dimer

Sequence of GCAP2 (Bos taurus) (P51177 2-204): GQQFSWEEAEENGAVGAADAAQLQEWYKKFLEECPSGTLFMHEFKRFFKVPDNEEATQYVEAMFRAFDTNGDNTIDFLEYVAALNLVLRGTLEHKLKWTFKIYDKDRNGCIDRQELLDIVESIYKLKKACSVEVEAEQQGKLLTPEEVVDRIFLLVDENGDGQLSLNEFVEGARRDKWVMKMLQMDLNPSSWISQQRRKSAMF

For GCAP2 (from UniProt P51177), the Kd (GCAP2 (Bos taurus)) is given as 52 µM.

B1: nonmyristoylated human guanylate cyclase-activating protein 2 (natural protein, UniProt Q9UMX6 1-200, looked up)
chain: MGQEFSWEEAEAAGEIDVAELQEWYKKFVMECPSGTLFMHEFKRFFKVTDDEEASQYVEGMFRAFDKNGDNTIDFLEYVAALNLVLRGTLEHKLKWTFKIYDKDGNGCIDRLELLNIVEGIYQLKKACRRELQTEQGQLLTPEEVVDRIFLLVDENGDGQLSLNEFVEGARRDKWVMKMLQMDMNPSSWLAQQRRKSAMF
notes: cDNA cloned into pET-11a(+) with NdeI and NheI; No tag is mentioned; also called nmGCAP2; nonmyristoylated GCAP2
With B1 the “stoichiometry N” value [1] was 2.

B2: myristoylated human guanylate cyclase-activating protein 2 (natural protein, UniProt Q9UMX6 1-200, looked up)
chain: MGQEFSWEEAEAAGEIDVAELQEWYKKFVMECPSGTLFMHEFKRFFKVTDDEEASQYVEGMFRAFDKNGDNTIDFLEYVAALNLVLRGTLEHKLKWTFKIYDKDGNGCIDRLELLNIVEGIYQLKKACRRELQTEQGQLLTPEEVVDRIFLLVDENGDGQLSLNEFVEGARRDKWVMKMLQMDMNPSSWLAQQRRKSAMF
modifications: myristic acid covalently bound to the N-terminal Gly
notes: cDNA cloned into pET-11a(+) with NdeI and NheI; Myristoylation was confirmed by MALDI-TOF (difference of 212.2 Da to nmGCAP2); Surmised: the first methionine is removed so that Gly2 is the myristoylated N-terminus; also called mGCAP2; myristoylated GCAP2
For B2, the “stoichiometry N” value [1] was 2, the Kd [2] was 55.4 µM and the Kd [3] was less than 1 µM.

B3: myristoylated human GCAP2 G157R variant (natural protein, UniProt Q9UMX6 1-200, looked up)
chain: MGQEFSWEEAEAAGEIDVAELQEWYKKFVMECPSGTLFMHEFKRFFKVTDDEEASQYVEGMFRAFDKNGDNTIDFLEYVAALNLVLRGTLEHKLKWTFKIYDKDGNGCIDRLELLNIVEGIYQLKKACRRELQTEQGQLLTPEEVVDRIFLLVDENRDGQLSLNEFVEGARRDKWVMKMLQMDMNPSSWLAQQRRKSAMF
modifications: myristic acid covalently bound to the N-terminal Gly
notes: The variant occurs in patients (Japanese families with retinitis pigmentosa); also called G157R GCAP2; IRD-associated G157R variant
With B3 the “stoichiometry N” value [1] was 2.
